Ends that are not written are not given here.

The record followed here is patent publication US20150065436A1 (UNIVERSITY OF SOUTHERN CALIFORNIA, published 2015).

The target in assay [1] is T1, p300-CH1 (cysteine-histidine rich 1 domain of human coactivator protein p300, amino acid residues 323-423) (human, UniProt Q09472 323-423, uniformly 15N-labelled; folded with 3 equivalents of Zn2+).
T1 construct: range 323-423; Expressed in E. coli from pGEX-4T-2 as a GST fusion; also called p300 CH1 domain; 15N-labeled p300-CH1
T1 sequence (Q09472 323-423 limits assumed): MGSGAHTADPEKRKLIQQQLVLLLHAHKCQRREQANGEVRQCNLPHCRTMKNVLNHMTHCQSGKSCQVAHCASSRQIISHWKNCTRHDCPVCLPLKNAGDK
Description: fluorescence polarization, p300-CH1 titrated into 15 nM fluorescein-labeled HIF peptide.

The target of assay [2] is T1, p300-CH1 (cysteine-histidine rich 1 …). Description: fluorescence polarization, p300-CH1 titrated into 15 nM fluorescein-labeled HIF-1α C-TAD786-826.

B1: fluorescein-labeled HIF-1α C-TAD786-826 (peptide)
peptide: SMDESGLPQLTSYDCEVNAPIQGSRNLLQGEELLRALDQVN
modifications: also: fluorescein label, site shown only in structure
notes: Fluorescent probe of the polarization assay; also called Flu-HIF C-TAD
Regarding B1, the figures for the Kd in assay [1] and in assay [2] were 31 nM and 31.9 nM, respectively. Also, in assay [2], the “EC50 (read off the curve)” value was roughly 40 nM.
